Source: PMC9396398, “Crystal structure of Ankyrin-G in complex with a fragment of Neurofascin reveals binding mechanisms required for integrity of the axon initial segment” (The Journal of Biological Chemistry, 2022)

B1: Nfasc 1198 to 1214 WT [not stated] / AnkG ANK repeats (residues 38-855, R1-24) [not stated] (parent)
chain 1: GEGQFNEDGSFIGQYTV
chain 2: KSDANASYLRAARAGHLEKALDYIKNGVDVNICNQNGLNALHLASKEGHVEVVSELLQREANVDAATKKGNTALHIASLAGQAEVVKVLVTNGANVNAQSQNGFTPLYMAAQENHLEVVRFLLDNGASQSLATEDGFTPLAVALQQGHDQVVSLLLENDTKGKVRLPALHIAARKDDTKAAALLLQNDTNADIESKMVVNRATESGFTPLHIAAHYGNINVATLLLNRAAAVDFTARNDITPLHVASKRGNANMVKLLLDRGAKIDAKTRDGLTPLHCGARSGHEQVVEMLLDRAAPILSKTKNGLSPLHMATQGDHLNCVQLLLQHNVPVDDVTNDYLTALHVAAHCGHYKVAKVLLDKKANPNAKALNGFTPLHIACKKNRIRVMELLLKHGASIQAVTESGLTPIHVAAFMGHVNIVSQLMHHGASPNTTNVRGETALHMAARSGQAEVVRYLVQDGAQVEAKAKDDQTPLHISARLGKADIVQQLLQQGASPNAATTSGYTPLHLSAREGHEDVAAFLLDHGASLSITTKKGFTPLHVAAKYGKLEVASLLLQKSASPDAAGKSGLTPLHVAAHYDNQKVALLLLDQGASPHAAAKNGYTPLHIAAKKNQMDIATSLLEYGADANAVTRQGIASVHLAAQEGHVDMVSLLLSRNANVNLSNKSGLTPLHLAAQEDRVNVAEVLVNQGAHVDAQTKMGYTPLHVGCHYGNIKIVNFLLQHSAKVNAKTKNGYTPLHQAAQQGHTHIINVLLQNNASPNELTVNGNTALAIARRLGYISVVDTLKVVTEEIMTTTTITEKHKMNVPETMNEVLDMS
B2: AnkG ANK repeats (residues 38-855, R1-24) [not stated] / Nfasc ankyrin-binding domain (ABD, residues 1187-1214) [not stated] (parent)
chain 1: SDDSLVDYGEGGEGQFNEDGSFIGQYTV
chain 2: B1 chain 2

Variants of: B1
Test: ITC
Conditions: with AnkG ANK repeats (residues 38-855, R1-24); parent: 1

| Variant | ratio to parent |
| --- | --- |
| chain 1 I12Q | 3 |
| chain 1 N6A | 1 |
| chain 1 F11Q | 4 |

Now from value to variant:

| ratio to parent | Variant |
| --- | --- |
| 1 | chain 1 T16A |
| 4 | chain 1 S10A |
| 4 | chain 1 D8A |
| 23 | chain 1 D8K |

Variants of: B2
Test: ITC
Conditions: with Nfasc ankyrin-binding domain (ABD, residues 1187-1214); parent: 1

| Variant | ratio to parent |
| --- | --- |
| chain 2 M311Q | 8 |
| chain 2 V245Q | 6 |
| chain 2 R281A Q314A | 3 |
| chain 2 T302A N304A | 11 |

Other lines, results leading:

| ratio to parent | Variant |
| --- | --- |
| 14 | chain 2 I240Q L273Q |
| 8 | chain 2 H347A |
